Source: patent US20120270784A1 (THERATECHNOLOGIES, published 2012)
Where no end group is shown, it is not given here.

T1: human GRF receptor (human, UniProt Q02643 23-423)
T1 sequence (looked up): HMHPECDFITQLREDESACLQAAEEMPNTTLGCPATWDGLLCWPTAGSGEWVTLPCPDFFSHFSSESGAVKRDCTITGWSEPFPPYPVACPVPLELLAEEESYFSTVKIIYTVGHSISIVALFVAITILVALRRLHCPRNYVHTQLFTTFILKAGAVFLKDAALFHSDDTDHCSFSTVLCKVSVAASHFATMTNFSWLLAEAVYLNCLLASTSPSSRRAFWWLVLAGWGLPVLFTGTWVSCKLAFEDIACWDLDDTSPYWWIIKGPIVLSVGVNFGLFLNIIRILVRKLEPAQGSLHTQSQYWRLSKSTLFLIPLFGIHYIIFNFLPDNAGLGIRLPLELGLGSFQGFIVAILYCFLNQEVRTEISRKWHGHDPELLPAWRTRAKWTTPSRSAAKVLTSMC

B1: Trans-3-hexenoyl-YADAIFTDSYRKVLAQLSARQDILAR-NH2 (SEQ ID NO: 45) (peptide)
peptide: YADAIFTDSYRKVLAQLSARQDILAR
HELM: PEPTIDE1{[CC/C=C/CC(=O)[*:2]].Y.A.D.A.I.F.T.D.S.Y.R.K.V.L.A.Q.L.S.A.R.Q.D.I.L.A.R.[am]}$$$$V2.0
SMILES: CC/C=C/CC(=O)N[C@@H](Cc1ccc(O)cc1)C(=O)N[C@@H](C)C(=O)N[C@@H](CC(=O)O)C(=O)N[C@@H](C)C(=O)N[C@H](C(=O)N[C@@H](Cc1ccccc1)C(=O)N[C@H](C(=O)N[C@@H](CC(=O)O)C(=O)N[C@@H](CO)C(=O)N[C@@H](Cc1ccc(O)cc1)C(=O)N[C@@H](CCCNC(=N)N)C(=O)N[C@@H](CCCCN)C(=O)N[C@H](C(=O)N[C@@H](CC(C)C)C(=O)N[C@@H](C)C(=O)N[C@@H](CCC(N)=O)C(=O)N[C@@H](CC(C)C)C(=O)N[C@@H](CO)C(=O)N[C@@H](C)C(=O)N[C@@H](CCCNC(=N)N)C(=O)N[C@@H](CCC(N)=O)C(=O)N[C@@H](CC(=O)O)C(=O)N[C@H](C(=O)N[C@@H](CC(C)C)C(=O)N[C@@H](C)C(=O)N[C@@H](CCCNC(=N)N)C(N)=O)[C@@H](C)CC)C(C)C)[C@@H](C)O)[C@@H](C)CC
B2: YGDAIFTDSYRKVLAQLKARQDILARAARAAR-HoSer-NH2 (SEQ ID NO: 36) (peptide)
peptide: YGDAIFTDSYRKVLAQLKARQDILARAARAARX
HELM: PEPTIDE1{Y.G.D.A.I.F.T.D.S.Y.R.K.V.L.A.Q.L.K.A.R.Q.D.I.L.A.R.A.A.R.A.A.R.[O=C([C@H](CCO)N[*:1])[*:2]].[am]}$$$$V2.0; N-terminus assumed
SMILES: CC[C@H](C)[C@H](NC(=O)[C@H](C)NC(=O)[C@H](CC(=O)O)NC(=O)CNC(=O)[C@@H](N)Cc1ccc(O)cc1)C(=O)N[C@@H](Cc1ccccc1)C(=O)N[C@H](C(=O)N[C@@H](CC(=O)O)C(=O)N[C@@H](CO)C(=O)N[C@@H](Cc1ccc(O)cc1)C(=O)N[C@@H](CCCNC(=N)N)C(=O)N[C@@H](CCCCN)C(=O)N[C@H](C(=O)N[C@@H](CC(C)C)C(=O)N[C@@H](C)C(=O)N[C@@H](CCC(N)=O)C(=O)N[C@@H](CC(C)C)C(=O)N[C@@H](CCCCN)C(=O)N[C@@H](C)C(=O)N[C@@H](CCCNC(=N)N)C(=O)N[C@@H](CCC(N)=O)C(=O)N[C@@H](CC(=O)O)C(=O)N[C@H](C(=O)N[C@@H](CC(C)C)C(=O)N[C@@H](C)C(=O)N[C@@H](CCCNC(=N)N)C(=O)N[C@@H](C)C(=O)N[C@@H](C)C(=O)N[C@@H](CCCNC(=N)N)C(=O)N[C@@H](C)C(=O)N[C@@H](C)C(=O)N[C@@H](CCCNC(=N)N)C(=O)N[C@@H](CCO)C(N)=O)[C@@H](C)CC)C(C)C)[C@@H](C)O
B3: Y-a-DAIFTDSYRKVLAQLKARQDILARAARAAR-HoSer-NH2 (SEQ ID NO: 37) (peptide)
peptide: YXDAIFTDSYRKVLAQLKARQDILARAARAARX
HELM: PEPTIDE1{Y.[dA].D.A.I.F.T.D.S.Y.R.K.V.L.A.Q.L.K.A.R.Q.D.I.L.A.R.A.A.R.A.A.R.[O=C([C@H](CCO)N[*:1])[*:2]].[am]}$$$$V2.0; N-terminus assumed
SMILES: CC[C@H](C)[C@H](NC(=O)[C@H](C)NC(=O)[C@H](CC(=O)O)NC(=O)[C@@H](C)NC(=O)[C@@H](N)Cc1ccc(O)cc1)C(=O)N[C@@H](Cc1ccccc1)C(=O)N[C@H](C(=O)N[C@@H](CC(=O)O)C(=O)N[C@@H](CO)C(=O)N[C@@H](Cc1ccc(O)cc1)C(=O)N[C@@H](CCCNC(=N)N)C(=O)N[C@@H](CCCCN)C(=O)N[C@H](C(=O)N[C@@H](CC(C)C)C(=O)N[C@@H](C)C(=O)N[C@@H](CCC(N)=O)C(=O)N[C@@H](CC(C)C)C(=O)N[C@@H](CCCCN)C(=O)N[C@@H](C)C(=O)N[C@@H](CCCNC(=N)N)C(=O)N[C@@H](CCC(N)=O)C(=O)N[C@@H](CC(=O)O)C(=O)N[C@H](C(=O)N[C@@H](CC(C)C)C(=O)N[C@@H](C)C(=O)N[C@@H](CCCNC(=N)N)C(=O)N[C@@H](C)C(=O)N[C@@H](C)C(=O)N[C@@H](CCCNC(=N)N)C(=O)N[C@@H](C)C(=O)N[C@@H](C)C(=O)N[C@@H](CCCNC(=N)N)C(=O)N[C@@H](CCO)C(N)=O)[C@@H](C)CC)C(C)C)[C@@H](C)O
B4: Trans-3-hexenoyl-YADAIFTDSYRKVLAQLSARQDILS-r-NH2 (SEQ ID NO: 46) (peptide)
peptide: YADAIFTDSYRKVLAQLSARQDILSX
HELM: PEPTIDE1{[CC/C=C/CC(=O)[*:2]].Y.A.D.A.I.F.T.D.S.Y.R.K.V.L.A.Q.L.S.A.R.Q.D.I.L.S.[dR].[am]}$$$$V2.0
SMILES: CC/C=C/CC(=O)N[C@@H](Cc1ccc(O)cc1)C(=O)N[C@@H](C)C(=O)N[C@@H](CC(=O)O)C(=O)N[C@@H](C)C(=O)N[C@H](C(=O)N[C@@H](Cc1ccccc1)C(=O)N[C@H](C(=O)N[C@@H](CC(=O)O)C(=O)N[C@@H](CO)C(=O)N[C@@H](Cc1ccc(O)cc1)C(=O)N[C@@H](CCCNC(=N)N)C(=O)N[C@@H](CCCCN)C(=O)N[C@H](C(=O)N[C@@H](CC(C)C)C(=O)N[C@@H](C)C(=O)N[C@@H](CCC(N)=O)C(=O)N[C@@H](CC(C)C)C(=O)N[C@@H](CO)C(=O)N[C@@H](C)C(=O)N[C@@H](CCCNC(=N)N)C(=O)N[C@@H](CCC(N)=O)C(=O)N[C@@H](CC(=O)O)C(=O)N[C@H](C(=O)N[C@@H](CC(C)C)C(=O)N[C@@H](CO)C(=O)N[C@H](CCCNC(=N)N)C(N)=O)[C@@H](C)CC)C(C)C)[C@@H](C)O)[C@@H](C)CC
B5: Y-a-DAIFTDSYRKVLAQLKARQDILS-r-NH2 (SEQ ID NO: 21) (peptide)
peptide: YXDAIFTDSYRKVLAQLKARQDILSX
HELM: PEPTIDE1{Y.[dA].D.A.I.F.T.D.S.Y.R.K.V.L.A.Q.L.K.A.R.Q.D.I.L.S.[dR].[am]}$$$$V2.0; N-terminus assumed
SMILES: CC[C@H](C)[C@H](NC(=O)[C@H](C)NC(=O)[C@H](CC(=O)O)NC(=O)[C@@H](C)NC(=O)[C@@H](N)Cc1ccc(O)cc1)C(=O)N[C@@H](Cc1ccccc1)C(=O)N[C@H](C(=O)N[C@@H](CC(=O)O)C(=O)N[C@@H](CO)C(=O)N[C@@H](Cc1ccc(O)cc1)C(=O)N[C@@H](CCCNC(=N)N)C(=O)N[C@@H](CCCCN)C(=O)N[C@H](C(=O)N[C@@H](CC(C)C)C(=O)N[C@@H](C)C(=O)N[C@@H](CCC(N)=O)C(=O)N[C@@H](CC(C)C)C(=O)N[C@@H](CCCCN)C(=O)N[C@@H](C)C(=O)N[C@@H](CCCNC(=N)N)C(=O)N[C@@H](CCC(N)=O)C(=O)N[C@@H](CC(=O)O)C(=O)N[C@H](C(=O)N[C@@H](CC(C)C)C(=O)N[C@@H](CO)C(=O)N[C@H](CCCNC(=N)N)C(N)=O)[C@@H](C)CC)C(C)C)[C@@H](C)O
B6: Trans-3-hexenoyl-YADAIFTDSYRKVLAQLSARQDIMSR-NH2 (SEQ ID NO: 44) (peptide)
peptide: YADAIFTDSYRKVLAQLSARQDIMSR
HELM: PEPTIDE1{[CC/C=C/CC(=O)[*:2]].Y.A.D.A.I.F.T.D.S.Y.R.K.V.L.A.Q.L.S.A.R.Q.D.I.M.S.R.[am]}$$$$V2.0
SMILES: CC/C=C/CC(=O)N[C@@H](Cc1ccc(O)cc1)C(=O)N[C@@H](C)C(=O)N[C@@H](CC(=O)O)C(=O)N[C@@H](C)C(=O)N[C@H](C(=O)N[C@@H](Cc1ccccc1)C(=O)N[C@H](C(=O)N[C@@H](CC(=O)O)C(=O)N[C@@H](CO)C(=O)N[C@@H](Cc1ccc(O)cc1)C(=O)N[C@@H](CCCNC(=N)N)C(=O)N[C@@H](CCCCN)C(=O)N[C@H](C(=O)N[C@@H](CC(C)C)C(=O)N[C@@H](C)C(=O)N[C@@H](CCC(N)=O)C(=O)N[C@@H](CC(C)C)C(=O)N[C@@H](CO)C(=O)N[C@@H](C)C(=O)N[C@@H](CCCNC(=N)N)C(=O)N[C@@H](CCC(N)=O)C(=O)N[C@@H](CC(=O)O)C(=O)N[C@H](C(=O)N[C@@H](CCSC)C(=O)N[C@@H](CO)C(=O)N[C@@H](CCCNC(=N)N)C(N)=O)[C@@H](C)CC)C(C)C)[C@@H](C)O)[C@@H](C)CC
B7: Trans-3-hexenoyl-YADAIFTDSYRKVLAQLKARQDILAR-NH2 (SEQ ID NO: 20) (peptide)
peptide: YADAIFTDSYRKVLAQLKARQDILAR
HELM: PEPTIDE1{[CC/C=C/CC(=O)[*:2]].Y.A.D.A.I.F.T.D.S.Y.R.K.V.L.A.Q.L.K.A.R.Q.D.I.L.A.R.[am]}$$$$V2.0
SMILES: CC/C=C/CC(=O)N[C@@H](Cc1ccc(O)cc1)C(=O)N[C@@H](C)C(=O)N[C@@H](CC(=O)O)C(=O)N[C@@H](C)C(=O)N[C@H](C(=O)N[C@@H](Cc1ccccc1)C(=O)N[C@H](C(=O)N[C@@H](CC(=O)O)C(=O)N[C@@H](CO)C(=O)N[C@@H](Cc1ccc(O)cc1)C(=O)N[C@@H](CCCNC(=N)N)C(=O)N[C@@H](CCCCN)C(=O)N[C@H](C(=O)N[C@@H](CC(C)C)C(=O)N[C@@H](C)C(=O)N[C@@H](CCC(N)=O)C(=O)N[C@@H](CC(C)C)C(=O)N[C@@H](CCCCN)C(=O)N[C@@H](C)C(=O)N[C@@H](CCCNC(=N)N)C(=O)N[C@@H](CCC(N)=O)C(=O)N[C@@H](CC(=O)O)C(=O)N[C@H](C(=O)N[C@@H](CC(C)C)C(=O)N[C@@H](C)C(=O)N[C@@H](CCCNC(=N)N)C(N)=O)[C@@H](C)CC)C(C)C)[C@@H](C)O)[C@@H](C)CC

Target: T1, human GRF receptor
Experiment: cell-based or functional assay

Row | Binder | EC50 as assessed by alkaline phosphatase (AP) induction [nM]
1 | YLDAIFTDSYRKVLAQLKARQDILARAARAAR-NH2 [YLDAIFTDSYRKVLAQLKARQDILARAARAAR-NH2 (SEQ ID NO: 35)] | 2.52
2 | YGDAIFTDSYRKVLAQLKARQDILARAARAAR-NH2 [YGDAIFTDSYRKVLAQLKARQDILARAARAAR-NH2 (SEQ ID NO: 34)] | 0.2
3 | YSDAIFTDSYRKVLAQLKARQDILARAARAAR-NH2 [YSDAIFTDSYRKVLAQLKARQDILARAARAAR-NH2 (SEQ ID NO: 33)] | 0.25
4 | B1 | 7.55
5 | B2 | 0.2
6 | B3 | 0.2
7 | B4 | 15.1
8 | B5 | 2.47
9 | B6 | 9.73
10 | B7 | 0.98
